The chains are these.
B1: HDV Ribozyme (parent)
chain: GGCCGGCAUGGUCCCAGCCUCCUCGCUGGCGCCGGCUGGGCAACAUUCCGAGGGGACCGUCCCCUCGGUAAUGGCGAAUGGGACCCA

This series covers variants of B1. The series can be described thus: self-cleavage, relative activity (ratio to wild type); higher = more cleavage; co-transcriptional.
Turning to GGCCGGCAUGGUCCCAGCCUCAUCGCUGGAGCCGGCUGGGCAACAUUCCGAGGGGACCGUCCCCUCGGUAAUGGCGAAUGGGACCCA, the self-cleavage is 0.0405.

GGCCGGCAUGGUCCCAGCCUCCUCGCUGGCGCCCGCUGGGCAACAUUCUGAGGGGACCGUCCCCUCGGUAAUGGCGAAUGGGACCCA: the self-cleavage amounted to 0.208.

Regarding GGCCGGCAUGGUCCCAGCCUCCUCGCUGGCGCCGGCUGGGCAACAGUCCGAGGGGACCGUCCCCUCGGUAAUGGCGAAGGGGACCCA, the self-cleavage was determined as 0.787.

Regarding GGCCGGCAUGGUCCCAGCCUCCUCGCUCGCGCCGGCUGGGCAACAUUCCGAGGGGACCGUCCCCUCGGUAAUGGCGAAUGGGAGCCA, the self-cleavage amounted to 0.0332.

Take GGCCGGCAUGGUCUCAGCCUCCUCGCUGGCGCCGGCUGGGCAACAUUCCGAGGGGACCGUCCCCUUGGUAAUGGCGAAUGGGACCCA: the self-cleavage was 1.25.

On to GGCCGGCAUGGUCCCAGCCUCCUCGCUGGCGCCGGCUGGGCAACAUUCCGAGGGGACCGUCCCCUAAGUAAUGGCGAAUGGGACCCA, for which the self-cleavage came out at 0.864.

Regarding GGCCGGCAUGGUCCUAGCCUCCUCGCUGGCGCCGGCUGGGCAACAUCCCGAGGGGACCGUCCCCUCGGUAAUGGCGAAUGGGACCCA, the self-cleavage was 0.779.

In the case of GGCCGGCAUGGUCCCAGCCUCCUCGCUGUCGCCGGCUGGGCAACAUUCCGAGGGGACCGUCCCCUCGUUAAUGGCGAAUGGGACCCA, the self-cleavage turned out to be 0.135.

Take GGCCGGCAUGGUCCCAGCCUCCUCGCUGGCGCCGGCUGGGCAACAUUCCGAGGGGACCGUCGCCUCUGUAAUGGCGAAUGGGACCCA: the self-cleavage was 0.423.

For the variant GGCCGGCAUGGUCCCAGCCUCCUCGAUGGCGCCGGCUGGGCAACAUUCCGAGGGGACCGUCGCCUCGGUAAUGGCGAAUGGGACCCA, the self-cleavage is 0.63.

For GGCCGGCAUGGUCCCAGCCUCCUCGCUGGCGCCGGCUGAGCAACAUUCCGAGGGGACCGUCCCCUCGGUAAUGGCGAAUGGGACACA, the self-cleavage was found to be 0.332.

Take GGCCGGCAUGGUCCCAGCCUCCUCGCUGGCGCCGGCUGGGCAACAUUCCGAGGGGACCGUCCCCUUGGUGAUGGCGAAUGGGACCCA: the self-cleavage turned out to be 0.903.

As to GGCCGGCAUGGUCCCAGCCUCCUCGCUGGCGCCGGCUGGGCAACAUUCCGAGGGGACCGUCCCCUUGGUAAUGGCGAAUGGGAUCCA, the self-cleavage was 0.683.

On to GGCCGGCAUGGUCCCAGCCUCCUCGCUGGCGCCGGCUGGGCAACGUUCCGAGGGGAGCGUCCCCUCGGUAAUGGCGAAUGGGACCCA, for which the self-cleavage came to 1.01.

Take GGCCGGCAUGGUCCCAGCCUCCUCGCUGGCGCCGGCUGGGCAACAUUCCGAGGGGACCGUCCCCUCGGUAAUGUCGAAUGGGACCCA: the self-cleavage was determined as 0.569.

For GGCCGGCGUGGUCCCAGCCUCCUCGCUGGCGCCGGCUGGGCAAUAUUCCGAGGGGACCGUCCCCUCGGUAAUGGCGAAUGGGACCCA, the self-cleavage stood at 0.475.

GGCCGGCAUGGUCCCAGCCUCCUCGCUGGCGCCGGCUGGGCAACAUUCCGAUGGGACCGUCCCCUCGGUAAUGGCGAAUCGGACCCA: the self-cleavage worked out at 0.241.

Take GGCCGGCAUGGUCCCAGCCUCCUCGCUGGCGUCGGCUGGGCAACAUUCCGAGGGGACCGUCCCCUCGGUAAUGGCGAAUGCGACCCA: the self-cleavage is 0.248.

With GGCCGGCAUGGUCCCAGCCUCCUCGCUGGCGCCGGCUGGGCAACAUUCCAAGGGUACCGUCCCCUCGGUAAUGGCGAAUGGGACCCA, the self-cleavage was found to be 1.11.

For the variant GGCCGGCAUGGUCCCAGCCUCUUCGCUGGCGCCGGCUGGGCAACAUUCCGAGGGGACCGUCCCCUCUGUAAUGGCGAAUGGGACCCA, the self-cleavage was found to be 0.548.

As for GGCCGGCAUGGUCCCAGCCUCCUCGCUGGCGCCGGCUGGUCAACAUUCCGAGGGGACCGUCCCCACGGUAAUGGCGAAUGGGACCCA, the self-cleavage came out at 0.808.

As to GGCCGGCAUGGACCCAGCCUCCUCGCUGGCGCCGGCUGGGCAACAUUCCGAGGGGACCGUCCCCUCGGUAAUGGCGAAUAGGACCCA, the self-cleavage turned out to be 0.108.

With GGCCGGCAUGGUCCCAGCCUCCUCGCUGGCGCCGGCUGGGCAACAUUCCGAGGGGACCGUACCCUCGGUAAUGGAGAAUGGGACCCA, the self-cleavage was determined as 0.136.

For GGCCGGCAUGGUCCCAGUCUCCUCGCUGGCGCCGGCUGGGCAACAUUCCGAGGGGACCGUCCCCUCGGUAAUGGCGAAUGGGACGCA, the self-cleavage amounted to 0.975.

For the variant GGCCGGCAUGUUCCCAGCCUCCUCGCUGGCGCCGGCUGGGCAACAUUCCGAGGGGACCGUCCCCUUGGUAAUGGCGAAUGGGACCCA, the self-cleavage was 0.249.

As to GGCCGGCAUGGUACCAGCCUCCUCGCUGGCGCCGGCUGGGCAACAUUUCGAGGGGACCGUCCCCUCGGUAAUGGCGAAUGGGACCCA, the self-cleavage was 0.284.

Turning to GGCCGGCAUUGUCCCAGCCUCCUCGCUGGCGCCGGCUGGGCAACAUUCCGAGGGGACCAUCCCCUCGGUAAUGGCGAAUGGGACCCA, the self-cleavage worked out at 0.636.

On to GGCCUGCAUGGUCCCAGCCUCCUGGCUGGCGCCGGCUGGGCAACAUUCCGAGGGGACCGUCCCCUCGGUAAUGGCGAAUGGGACCCA, for which the self-cleavage was determined as 0.

Take GGCCGGCAUGGUCCCAGCCACCUCGCUGGCGCCGGCUGGGCAACAUUCCGAGGGGACCGUCCCCUCGGUAAUGGAGAAUGGGACCCA: the self-cleavage was found to be 0.0923.

As to GGCCGGCAUGGUCCCAGCCUCCUCGCUGGCGCCGGCUGGUCAACAUUCUGAGGGGACCGUCCCCUCGGUAAUGGCGAAUGGGACCCA, the self-cleavage was 0.817.

On to GGCCGGCAUGGUCCCAGCCUCCUCGCUGGCGCCGGCUGGGCAACAAUCCGAAGGGACCGUCCCCUCGGUAAUGGCGAAUGGGACCCA, for which the self-cleavage was 0.776.

GGCCGGCAUGGUCCCAGCCUCCUCGCUGGCGCCGGCUGGGCAACAUUCCGAGGGGACCGUCCCCUCGGGGAUGGCGAAUGGGACCCA: the self-cleavage turned out to be 0.767.

These data come from the RNAGym collection of RNA variant scans (doi:10.7554/elife.80360).
